Experimental data as given in patent US20150191546A1.

Molecular target: recombinant PR1/HLA-A*0201 monomer (human)
Assay: SPR (Biacore), antibody captured, peptide/HLA-A2 as analyte

Kd: 162 nM
Substance: BB7.2 murine monoclonal antibody (HLA-A*0201 allele-specific mouse IgG2a)
